B1: SF1 (protein, UniProt Q15637 2-639, looked up)
Splicing factor 1: ATGANATPLDFPSKKRKRSRWNQDTMEQKTVIPGMPTVIPPGLTREQERAYIVQLQIEDLTRKLRTGDLGIPPNPEDRSPSPEPIYNSEGKRLNTREFRTRKKLEEERHNLITEMVALNPDFKPPADYKPPATRVSDKVMIPQDEYPEINFVGLLIGPRGNTLKNIEKECNAKIMIRGKGSVKEGKVGRKDGQMLPGEDEPLHALVTANTMENVKKAVEQIRNILKQGIETPEDQNDLRKMQLRELARLNGTLREDDNRILRPWQSSETRSITNTTVCTKCGGAGHIASDCKFQRPGDPQSAQDKARMDKEYLSLMAELGEAPVPASVGSTSGPATTPLASAPRPAAPANNPPPPSLMSTTQSRPPWMNSGPSESRPYHGMHGGGPGGPGGGPHSFPHPLPSLTGGHGGHPMQHNPNGPPPPWMQPPPPPMNQGPHPPGHHGPPPMDQYLGSTPVGSGVYRLHQGKGMMPPPPMGMMPPPPPPPSGQPPPPPSGPLPPWQQQQQQPPPPPPPSSSMASSTPLPWQQNTTTTTTSAGTGSIPPWQQQQAAAAASPGAPQMQGNPTMVPLPPGVQPPLPPGAPPPPPPPPPGSAGMMYAPPPPPPPPMDPSNFVTMMGMGVAGMPPFGMPPAPPPPPPQN
B2: LARP7 (protein, UniProt Q4G0J3 1-582, looked up)
La-related protein 7: METESGNQEKVMEEESTEKKKEVEKKKRSRVKQVLADIAKQVDFWFGDANLHKDRFLREQIEKSRDGYVDISLLVSFNKMKKLTTDGKLIARALRSSAVVELDLEGTRIRRKKPLGERPKDEDERTVYVELLPKNVNHSWIERVFGKCGNVVYISIPHYKSTGDPKGFAFVEFETKEQAAKAIEFLNNPPEEAPRKPGIFPKTVKNKPIPALRVVEEKKKKKKKKGRMKKEDNIQAKEENMDTSNTSISKMKRSRPTSEGSDIESTEPQKQCSKKKKKRDRVEASSLPEVRTGKRKRSSSEDAESLAPRSKVKKIIQKDIIKEASEASKENRDIEISTEEEKDTGDLKDSSLLKTKRKHKKKHKERHKMGEEVIPLRVLSKSEWMDLKKEYLALQKASMASLKKTISQIKSESEMETDSGVPQNTGMKNEKTANREECRTQEKVNATGPQFVSGVIVKIISTEPLPGRKQVRDTLAAISEVLYVDLLEGDTECHARFKTPEDAQAVINAYTEINKKHCWKLEILSGDHEQRYWQKILVDRQAKLNQPREKKRGTEKLITKAEKIRLAKTQQASKHIRFSEYD
B3: ATAD3A (protein, UniProt Q9NVI7 2-586, looked up)
ATPase family AAA …: SWLFGINKGPKGEGAGPPPPLPPAQPGAEGGGDRGLGDRPAPKDKWSNFDPTGLERAAKAARELEHSRYAKDALNLAQMQEQTLQLEQQSKLKEYEAAVEQLKSEQIRAQAEERRKTLSEETRQHQARAQYQDKLARQRYEDQLKQQQLLNEENLRKQEESVQKQEAMRRATVEREMELRHKNEMLRVEAEARARAKAERENADIIREQIRLKAAEHRQTVLESIRTAGTLFGEGFRAFVTDWDKVTATVAGLTLLAVGVYSAKNATLVAGRFIEARLGKPSLVRETSRITVLEALRHPIQVSRRLLSRPQDALEGVVLSPSLEARVRDIAIATRNTKKNRSLYRNILMYGPPGTGKTLFAKKLALHSGMDYAIMTGGDVAPMGREGVTAMHKLFDWANTSRRGLLLFVDEADAFLRKRATEKISEDLRATLNAFLYRTGQHSNKFMLVLASNQPEQFDWAINDRINEMVHFDLPGQEERERLVRMYFDKYVLKPATEGKQRLKLAQFDYGRKCSEVARLTEGMSGREIAQLAVSWQATAYASEDGVLTEAMMDTRVQDAVQQHQQKMCWLKAEGPGRGDEPSPS
B4: FAM120A (protein, UniProt Q9NZB2 1-1118, looked up)
Constitutive coactivator of …: MGVQGFQDYIEKHCPSAVVPVELQKLARGSLVGGGRQRPPQTPLRLLVDADNCLHRLYGGFYTDWVSGGQWNHMLGYLAALAKACFGGNIELFVFFNGALEKARLHEWVKRQGNERQTAQQIVSHVQNKGTPPPKVWFLPPVCMAHCIRLALIRFHVKVAQSIEDHHQEVIGFCRENGFHGLVAYDSDYALCNIPYYFSAHALKLSRNGKSLTTSQYLMHEVAKQLDLNPNRFPIFAALLGNHILPDEDLASFHWSLLGPEHPLASLKVRAHQLVLPPCDVVIKAVADYVRNIQDTSDLDAIAKDVFQHSQSRTDDKVIRFKRAIGYYSATSKPMSFHPPHYLAARPGPFGMPGMVPPHVPPQMLNIPQTSLQAKPVAPQVPSPGGAPGQGPYPYSLSEPAPLTLDTSGKNLTEQNSYSNIPHEGKHTPLYERSSPINPAQSGSPNHVDSAYFPGSSTSSSSDNDEGSGGATNHISGNKIGWEKTGSHSEPQARGDPGDQTKAEGSSTASSGSQLAEGKGSQMGTVQPIPCLLSMPTRNHMDITTPPLPPVAPEVLRVAEHRHKKGLMYPYIFHVLTKGEIKIAVSIEDEANKDLPPAALLYRPVRQYVYGVLFSLAESRKKTERLAFRKNRLPPEFSPVIIKEWAAYKGKSPQTPELVEALAFREWTCPNLKRLWLGKAVEDKNRRMRAFLACMRSDTPAMLNPANVPTHLMVLCCVLRYMVQWPGARILRRQELDAFLAQALSPKLYEPDQLQELKIENLDPRGIQLSALFMSGVDMALFANDACGQPIPWEHCCPWMYFDGKLFQSKLLKASREKTPLIDLCDGQADQAAKVEKMRQSVLEGLSFSRQSHTLPFPPPPALPFYPASAYPRHFGPVPPSQGRGRGFAGVCGFGGPYGETVATGPYRAFRVAAASGHCGAFSGSDSSRTSKSQGGVQPIPSQGGKLEIAGTVVGHWAGSRRGRGGRGPFPLQVVSVGGPARGRPRGVISTPVIRTFGRGGRYYGRGYKNQAAIQGRPPYAASAEEVAKELKSKSGESKSSAMSSDGSLAENGVMAEEKPAPQMNGSTGDARAPSHSESALNNDSKTCNTNPHLNALSTDSACRREAALEAAVLNKEE
B5: NKRF (protein, UniProt O15226 1-690, looked up)
NF-kappa-B-repressing factor: MEKILQMAEGIDIGEMPSYDLVLSKPSKGQKRHLSTCDGQNPPKKQAGSKFHARPRFEPVHFVASSSKDERQEDPYGPQTKEVNEQTHFASMPRDIYQDYTQDSFSIQDGNSQYCDSSGFILTKDQPVTANMYFDSGNPAPSTTSQQANSQSTPEPSPSQTFPESVVAEKQYFIEKLTATIWKNLSNPEMTSGSDKINYTYMLTRCIQACKTNPEYIYAPLKEIPPADIPKNKKLLTDGYACEVRCQNIYLTTGYAGSKNGSRDRATELAVKLLQKRIEVRVVRRKFKHTFGEDLVVCQIGMSSYEFPPALKPPEDLVVLGKDASGQPIFNASAKHWTNFVITENANDAIGILNNSASFNKMSIEYKYEMMPNRTWRCRVFLQDHCLAEGYGTKKTSKHAAADEALKILQKTQPTYPSVKSSQCHTGSSPRGSGKKKDIKDLVVYENSSNPVCTLNDTAQFNRMTVEYVYERMTGLRWKCKVILESEVIAEAVGVKKTVKYEAAGEAVKTLKKTQPTVINNLKKGAVEDVISRNEIQGRSAEEAYKQQIKEDNIGNQLLRKMGWTGGGLGKSGEGIREPISVKEQHKREGLGLDVERVNKIAKRDIEQIIRNYARSESHTDLTFSRELTNDERKQIHQIAQKYGLKSKSHGVGHDRYLVVGRKRRKEDLLDQLKQEGQVGHYELVMPQAN
B6: RBM17 (protein, UniProt Q96I25 2-401, looked up)
Splicing factor 45: SLYDDLGVETSDSKTEGWSKNFKLLQSQLQVKKAALTQAKSQRTKQSTVLAPVIDLKRGGSSDDRQIVDTPPHVAAGLKDPVPSGFSAGEVLIPLADEYDPMFPNDYEKVVKRQREERQRQRELERQKEIEEREKRRKDRHEASGFARRPDPDSDEDEDYERERRKRSMGGAAIAPPTSLVEKDKELPRDFPYEEDSRPRSQSSKAAIPPPVYEEQDRPRSPTGPSNSFLANMGGTVAHKIMQKYGFREGQGLGKHEQGLSTALSVEKTSKRGGKIIVGDATEKDASKKSDSNPLTEILKCPTKVVLLRNMVGAGEVDEDLEVETKEECEKYGKVGKCVIFEIPGAPDDEAVRIFLEFERVESAIKAVVDLNGRYFGGRVVKACFYNLDKFRVLDLAEQV

system: GFP-tagged PRPF40A-Nter-MUT; assay: SILAC GFP-immunoprecipitation with quantitative mass spectrometry, mutant construct; assay type: binding, human (Hela cells); conditions: quantitative MS, Hela cells, protein by gene name
In short: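 GFP-tagged PRPF40A N-terminal region (isoform 2, residues 1–221) with PPVP/PALPP motifs mutated to alanines, transiently expressed 24 h in SILAC-labelled HeLa cells alongside GFP control. Lysates (2.5 mg) pulled down on GFP-nanobody beads 1 h at 4 °C; pooled eluates trypsin-digested and quantified by LC-MS/MS on Orbitrap.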

Molecule	Immunoprecipitation enrichment MUT vs WT, log2 FC
B1	0.9625
B2	1.221
B3	1.016
B4	1.247
B5	1.452
B6	1.293
